Laboratory results reported in patent publication US20240076398A1 (VISTERRA, published 2024).
Numbering of substitutions follows the chain as printed. No end group written: not given here.

What was measured:
Assay in all cases: BLI, peptide on streptavidin sensor
[1] = target: T1, biotinylated N-terminal peptide of C5aR1 with tyrosine sulfation (human, tyrosine sulfation (the sulfated tyrosines of C5aR1 are Y11 and Y14); biotinylated)
T1 construct: also called Sulfated N-terminal
T1 peptide: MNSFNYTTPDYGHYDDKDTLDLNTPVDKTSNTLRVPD
Text: (§1) The epitope mapping was undertaken, using biolayer interferometry, on a series of exemplary anti-C5aR1 antibodies generated as described in Example 1. Briefly, for each antibody, biotinylated peptides representing ECL2, the N-terminus with tyrosine sulfation, and the N-terminus without tyrosine sulfation, were immobilized in a streptavidin biosensor. Subsequently, the biosensor was exposed to […] of antibody to detect antibody binding to the immobilized peptide. The results of the epitope mapping study are shown in Table 4 (“+” indicates binding to the listed peptide; “−” indicates lack of binding to the listed peptide).

[2] = target: T2, biotinylated N-terminal peptide of C5aR1 without tyrosine sulfation (human, biotinylated)
T2 construct: also called Non-sulfated N-terminal
T2 peptide: T1 peptide
Text: as §1

[3] = target: T3, biotinylated cyclic ECL2 peptide of C5aR1 (human, also: biotinylated, position not given here, cyclic, way of cyclisation not given here)
T3 peptide: RVVREEYFPPKVLC
Text: as §1

B1: antibody 343 (antibody, V domains shown)
VH: QVQLQQSGAELVKPGASVKLSCKASGYTFTEYTIHWVNQRSGQGLEWIGWFYPGSGSIKYNEKFKDKATLTADKSSHTVYMELSRLTSEDSAVYFCARHGNYYDGSWFAYWGQGTLVTVSA
VL: DVQITQSPSYLAASPGETITINCRASKSISKYLAWYQEKPGKTNKLLIYSGSTLQSGIPSRFSGSGSGTDFTLTISSLEPEDFAMYYCQQHDEYPWTFGGGTKLEIK
[1]
  binding result: no binding (tested: 10 gg/mL (so in the source))
[2]
  binding result: no binding (tested: 10 gg/mL (so in the source))

B2: Clone_66 (antibody, V domains shown)
VH: QVQLQQSDAELVKPGASVKISCKASGYTFIDHAIHWVKQRPEQGLEWIGYISPGNGEIKYNEKFKAKATLTADKSSSAAYMQLNSLTSADSAVYFCKRALFYYTGKYQPMDYWGQGTTVTDSS
VL: DIVMTQSQKFMSTTAGDRVSITCKASQNVGSAVVWYQQKPGRSPKLLIYSSSIRYTGVPDRFTGSGSGTDFTLTINSVQSEDLADYFCQQYNSFPLTFGAGTKLEIK
notes: also called Ab66; mab 66
[3]
  binding result: no binding (tested: 10 gg/mL (so in the source))

B3: Clone_336_V2-1 (antibody, V domains shown)
VH: QVQLKQSGPGLVQSSQSLSITCTVSGFSLISYGVHWVRQSPGKGLEWLGVIWSGGSTDYNAAFKSRLSITKDNSKSQVFFKMNSLQADDTAIYYCAKNSQLGNAMDYWGQGTTVTVSS
VL: DIVMSQSPSSLAVSAGEKVTMSCKSSQSLLSSRTRKNYLAWYQQKPGQSPKLLIYWASTRESGVPDRFTGSGSGTDFTLTISSVQAEDLALYFCNQSYDLLTFGAGTKLEIK
[1]
  binding result: no binding (tested: 10 gg/mL (so in the source))
[2]
  binding result: no binding (tested: 10 gg/mL (so in the source))

B4: Clone_79 (antibody, V domains shown)
VH: QVQLKESGPGLVAPSQSLSITCTVSGFSLTSYAISWVRQPPGKGLEWLGVIWTGGGTKYNSALKSRLSISKDNSKSHVFLKMNSLQSDDTARYYCARDGDYVYYAMAYWGQGTTVTVSS
VL: DVVMTQTPLSLPVSLGDQASISCRSSQSLVHSNGNTYLHWYLQKPGQSPKLLIYKVSNRFSGVPDRFSGSGSGTDFKLKISRVEAEDLGVYFCSQSTHVPPTFGGGTKLEIK
notes: also called antibody 79
[1]
  binding result: no binding (tested: 10 gg/mL (so in the source))
[2]
  binding result: no binding (tested: 10 gg/mL (so in the source))

B5: Clone_429 (antibody, V domains shown)
VH: QVQLQQSGAELAKPGASVKLSCKASGYTFSSYWIHWVKQRPGQGLEWIGYINPRGDYTKYNQKFKDKATLTADKSSSTAFMQLSSLTYEDSAVYYCVRVTGSEGPYYFDYWGQGTTLTVSS
VL: B4 VL with H39Q, D75E, K77T, S81R, Y91F, F92L, H98L, P101L, G105A, I111L
[1]
  binding result: no binding (tested: 10 gg/mL (so in the source))
[2]
  binding result: no binding (tested: 10 gg/mL (so in the source))

B6: Clone_584 (antibody, V domains shown)
VH: DVQLQESGPDLVKPSQSLSLTCTVTGYSITSGYSWHWIRQSPGNKLEWLAYIHNSGSTNYNPSLKSRISITRDTSKNQFFLKLNSVTTEDTATYYCARSIGDYWGQGTTLAVSS
VL: B4 VL with Q18R, S26G, K44R, Q47R, K50N, K77T, P101W
[1]
  binding result: no binding (tested: 10 gg/mL (so in the source))
[2]
  binding result: no binding (tested: 10 gg/mL (so in the source))

B7: Clone_329 (antibody, V domains shown)
VH: QVQLQQSGAELTKPGASVKLSCKASGYTFTNYWMHWVKQRPGQGLEWIGYLNPSSGYTKYNQKFKDKATLTADKSSSTAYMQLNSLTYEDSAVYYCTRSGGDNYGNPYYFDRWGQGTTVTVSS
VL: B4 VL with P12T, L51F, K77R, H98L, P101L, G105A
notes: also called Ab329; mAb329
[1]
  binding result: no binding (tested: 10 gg/mL (so in the source))
[2]
  binding result: no binding (tested: 10 gg/mL (so in the source))

B8: Clone_11_V2 (antibody, V domains shown)
VH: QVQLQQSGPELVKPGASVKISCKASGYSFSSSWMNWVKQRPGKGLEWIGRISPGDGDTRYSGKFKGKATLTADKSSSTAYMQVTSLTSEDSAIYFCVRFLITSTRYVMDYWGQGTTVTVSS
VL: B4 VL with K77T, H98L
notes: also called Ab11v2
[1]
  binding result: no binding (tested: 10 gg/mL (so in the source))
[2]
  binding result: no binding (tested: 10 gg/mL (so in the source))

B9: Clone_588 (antibody, V domains shown)
VH: DVQLQESGPGLVKPSQSLSLTCTVTGYSITSDYAWNWIRQFPGNKLEWMGYISYSGSIRYNPSLKSRISITRDTSKNQFFLQLNSVTTEDTATYYCAITTGGYFDYWGQGTTLTVSS
VL: DIQMTQSTSSLSASLGDRVTISCRASQDISNYLNWYQQTPDGTVKLLIYQISRLHSGVPSRFSGSGSGTDYSLTISNLEEEDIANYFCQQGNSLPPTFGGGTKVEIK
[1]
  binding result: no binding (tested: 10 gg/mL (so in the source))
[2]
  binding result: no binding (tested: 10 gg/mL (so in the source))

B10: Clone_511 (antibody, V domains shown)
VH: QVQLQQSGAELAKPGASVKLSCKTSGYTFTNYWMHWIKQRPGLGLEWIGYINPSGDYTKHNQKFKDKATLTADRSSSTAYMQLSSLTYEDSAVYYCARVPLSYGSGNGPYYFDYWGQGTTLTVSS
VL: DVVMTQTPLSLPVSLGDHASISCRSSQSLVHSNGNIYLHWYLQRPGQSPKLLIHKVSNRFSGVPDRFSGSGSGTDFTLKISRVEAEDVGIYFCSQSTLVPLTFGSGTKLELK
[1]
  binding result: no binding (tested: 10 gg/mL (so in the source))
[2]
  binding result: no binding (tested: 10 gg/mL (so in the source))

B11: Clone_518 (antibody, V domains shown)
VH: B10 VH
VL: B10 VL with I36T
[1]
  binding result: no binding (tested: 10 gg/mL (so in the source))
[2]
  binding result: no binding (tested: 10 gg/mL (so in the source))

B12: Clone_453 (antibody, V domains shown)
VH: QVQLKQSGPGQVAPSQSLSITCTVSGFSLINSAVHWVRQSPGKGLEWLGVIWSDGSTDYNTAFISRLSISRDNSKSQVFFKMRSLQVDDTAVYYCARNGRLGNAMDYWGQGTSVTVSS
VL: DIVMTQSPSSLAVSVGEKVTMSCKSSQSLFSSRTRKNYLAWYQQKPGQSPKLLIYWASTRESGVPYRFTGSGSGTDFTLTISSVQTEDLAVYYCKQSYNLLTFGAGTKLEL
[1]
  binding result: no binding (tested: 10 gg/mL (so in the source))
[2]
  binding result: no binding (tested: 10 gg/mL (so in the source))

B13: antibody 317 (antibody, V domains shown)
VH: QVQLQQPGAELVMPGASVKLSCKASGYTFTSYWLHWVRQRPGQGLEWIGEIDPSDGYSNHNQKFKGKATLTVDKSSSTAYMQLSSLTSEDSAVYYCATEGFWGQGTTVTVSS
VL: DIVMTQSPSSLSVSAGEKVTMSCKSSQSLLKSGNQKNYLAWHQQKPGQPPKLLIYGASTRESGVPDRFTGSGSGTDFTLTISSVQAEDLAVYYCQNDHSHPYTFGGGTKLEIK
[1]
  binding result: no binding (tested: 10 gg/mL (so in the source))
[2]
  binding result: no binding (tested: 10 gg/mL (so in the source))
